This note sets out measurements from the DeepSol protein solubility set.

A short description of this data set: soluble on expression in E. coli; label from the status in PepcDB or PDB records.
As for “MIINLVKQLGTTRGYITLWTGIDSAIAALAVQGIASHRTQQYIDEYYPNIGGPLLNQDKEEDELTDAESFRRVIRNGFRDSVIRVVAVTAARPFAVCFARQVAQVIGNETKYTTCAQALAVIGKQEGPGGLFSGLAPQIVGELLVIWGVHLITHGIQRAILRIEFGDTKNKDETKAKAAKDVHKFIHTAVPFLVNSFGYPYSVVSTVMAVAGSGLAVSFLPYSPSFNNWHGAWDYLRPIGLKRGNRLFLREQVGAVTVGVDQQLYASNSYFA”, the “soluble on expression in E. coli” value is reported as “not soluble”.
As to “MAGDPMREITDIAVAESGDSDFKERLETKNAKSWLKSVSAFANGIGGTLYFGVEDRTRRIIGVQDIQLTISKITELIVARITPRPVFECIPLQQKGKDILAVRVDSGKHTPFYYVHDHHHTAYIRMGDESVPATDYQLNELILKGRNETYDSQITEKLRTDYSFTLLEATYLHTLNQHMSDSDYVSFGLAVEDGRLTNAGLLFADQCPLPDSRVFCTRWNGLQRGSVHEDATDDAEYSGNLIYLLKSATEFIRRNTRKGWTKTANGRVEKPDYAERAYFEGVVNALIHRTYDFRGTEVHVEMYDDRLVISSPGGIYGGGELEPMSDGSYISKRRNPILADIFSRLRYMERRGSGIKKIFEATKNLYGYTEEKKPFFLVNKQNDFFLTIPNVNYRSESVTTHDTIHDTIHDTIHDTIHDKIALLLSFCQTPRSREEMMEFVGLRNRDHFQKKYLRPLLEQEKIEMTIPEKPQSKNQKYRTKEVVKLEHHHHHH”, the “soluble on expression in E. coli” value is recorded as “soluble”.
“MPPGKCLFSGVFCNMAEKQTAKRNRREEILQSLALMLESSDGSQRITTAKLAASVGVSEAALYRHFPSKTRMFDSLIEFIEDSLITRINLILKDEKDTTARLRLIVLLLLGFGERNPGLTRILTGHALMFEQDRLQGRINQLFERIEAQLRQVLREKRMREGEGYTTDETLLASQILAFCEGMLSRFVRSEFKYRPTDDFDARWPLIAAQLQ”: the “soluble on expression in E. coli” value is recorded as “not soluble”.
In the case of “MTNDKMLARIAALLRQAEGTDNPHEADAFMSTAQRLATAASIDLAVARSHAGNRSPAQAPTQRTITIGAAGTRGLRTYVQLFVLIAAANDVRCDVASNSTFVYAYGFAEDIDTSHALYASLVVQMVRASDAYLASGAHRPTPTITARLNFQLAFGARVGQRLADAREQTRQEATKDRDRPPGTAIALRDKDIELHEYYRRSSKARGAWRASRATAGYSSAARRAGDRAGRQARLGNNPELPGARAALGR”, the “soluble on expression in E. coli” value is recorded as “soluble”.
As for “MENLKNYFDVVIIGAGPAGLFAAYELSKYDNLKTVVIDRGKDVLERHCAAEKLKKCIKCNPCQIMYGVGGAGGLSDGTLNLRPDIGGNLAEITNNENYAWQLIFEVDKIFLEHGGPKKLFKGSFEKIKGLQRRSAQNGVRFIPIIQRHIGSDHTKQLINNIKTTLQNRGVEFLLNTEVFKFEKNKVFVNISGKKEEINAKYIIVAPGRGNAEWFLKISEKIGLISNHGPIDVGVRVEVPSIIMESITEINHDPKFHIYTDTYDDFVRTFCTNPYGFVVEENYGDIIGVNGHSMVDKKSENTNFSFLTRIELTEPVENTTSYGKSIAKLTTTLGGGKPILQRLGDLKRGRRSTWDRLKKSSFDPTLKQVTPGDIAMALPHRIVTNIIEGLEKLDKVIPGVSNDHTLLYAPEIKYYAMKTKVNDDLETSILNIFAAGDGAGLSRDITNSCATGMLAARGILKKEGITDIFKDENTNWQEKVESMKLEHHHHHH”, the “soluble on expression in E. coli” value is listed as “soluble”.
The entry for “MLRTQFEEELLNLHNQFYEMGMMVSSAVHKSVKAYINHDKKLAQEVIDRDIEINDMEVKLEKKSFEMIALQQPVTTDLRMIITVMKASSDLERMADHAVSIAKSTIRLKGETRIPEIEKEISDMSDYVKKMVDNVLIAYVKTDQKDARMIAQMDDRTNEYFDSIYKHAVEAMKANPETVISGTDYLHVAQYLERIGDYVTNICEWIVYLATGKITELNSNRDEQF” is “not soluble”; for “MGSDKIHHHHHHMYKLNLDIQAFLANDWQQAPKVFKGAFPDFEDPIAADELAGLACEEEVSSRVVVTKGNDWEVISGPFEDYDRFGETHWQLLVQAVNHWYPESQPLVEAFRFLPDWRFDDLMVSFATPQGGVGPHIDNYDVFIIQGEGQRRWTVGPKGNYQRRGGVTTSPLIEDFEPIIDVVLEKGDVLYIPPGFPHQGETLTLALSYSMGYRAPSQQELAGQIADQLMDEDKGHKRFIAVDGAASHGTVSLAEQQGIMQLIRDLCNDTDNVVKVLGKLLSQNRFDLDIQEDESIDADALVEALNEGAVLMRIGGLKVLKMEGDSQARLFVAGESVIIEGASEEELIEVSNSVNVNAELAQLPHWQGFFVQMLQKGYFYLGED” it is “not soluble”.
